Laboratory results taken from patent publication US20240024499A1.

Target: glypican-3 (GPC3) on GPC3-positive liver cancer cell lines HepG2-C3A and Hep3B (human) (UniProt P51654)
Experiment: flow cytometry on GPC3-positive HepG2-C3A and Hep3B cells, anti-hIgG-AF488 detection

glypican-3 (GPC3) on GPC3-positive liver cancer cell lines HepG2-C3A and Hep3B (human), sequence (P51654 25-580): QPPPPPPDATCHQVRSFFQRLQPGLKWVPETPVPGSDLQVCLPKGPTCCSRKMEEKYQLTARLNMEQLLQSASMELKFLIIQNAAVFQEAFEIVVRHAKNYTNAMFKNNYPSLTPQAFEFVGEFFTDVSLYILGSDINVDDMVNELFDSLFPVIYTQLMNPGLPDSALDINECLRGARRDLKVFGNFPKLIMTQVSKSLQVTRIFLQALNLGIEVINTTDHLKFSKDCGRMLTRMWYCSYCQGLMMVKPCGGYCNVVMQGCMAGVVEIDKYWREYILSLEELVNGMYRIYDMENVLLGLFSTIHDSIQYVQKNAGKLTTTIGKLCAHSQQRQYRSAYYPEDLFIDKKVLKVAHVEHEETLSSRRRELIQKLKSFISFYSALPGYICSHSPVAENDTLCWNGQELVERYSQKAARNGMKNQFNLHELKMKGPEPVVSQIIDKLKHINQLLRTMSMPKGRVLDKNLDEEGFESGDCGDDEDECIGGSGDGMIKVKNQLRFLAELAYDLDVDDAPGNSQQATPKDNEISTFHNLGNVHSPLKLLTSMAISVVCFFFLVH

B1: ARD103 antibody (antibody, human IgG1, kappa, V domains shown)
VH: QVQLVESGAEVKKPGASVKVSCKASGYTFTDYEMHWVRQAPGQGLEWMGALDPKTGDTAYSQKFKGRVTLTADKSTSTAYMELSSLTSEDTAVYYCTRFYSYTYWGQGTLVTVSS
VL: DVVMTQSPLSLPVTPGEPASISCRSSQSLVHSNGNTYLHWYLQKPGQSPQLLIYKVSNRFSGVPDRFSGSGSGTDFTLKISRVEAEDVGVYYCSQNTHVPPTFGQGTKLEIKR
  EC50: 3.5 to 4 nM
